In paper PMC5653653:

Key:
[1] = molecular target: long Homer proteins (Homer1b/c, Homer2, and Homer3, collectively referred to as Homer) (mouse (endogenous in hippocampal neurons))
[2] = molecular target: long Homer proteins (Homer1b/c, Homer2, and Homer3, collectively referred to as Homer) (mouse (endogenous in hippocampal neurons)); remark: listed apart in the source
[3] = molecular target: long Homer proteins (Homer1b/c, Homer2, and Homer3, collectively referred to as Homer) (mouse (endogenous in hippocampal neurons)); remark: listed apart in the source

change of the mobile fraction of synaptic mGluR5 in WT neurons, TAT-mGluR5ct against TAT-mGluR5mu [1]: 12.6%
EPSCs (NMDA) amplitude (% of baseline) after DHPG (mGluR-LTD) in WT slices treated with TAT-mGluR5ct; LTD abolished [2]: 101%
EPSCs (NMDA) amplitude (% of baseline) after DHPG (mGluR-LTD) in WT slices treated with the control peptide TAT-mGluR5mu; LTD not abolished [2]: 56.6%
EPSCs (NMDA) amplitude in CA1 pyramidal neurons of WT slices treated with TAT-mGluR5ct (5 µM, 4 h); lower than untreated WT [2]: 88.1 pA
EPSCs (NMDA) amplitude in CA1 pyramidal neurons of WT slices treated with the control peptide TAT-mGluR5mu (5 µM, 4 h); not lower than untreated WT [2]: 126 pA
NMDA/AMPA ratio in CA1 pyramidal neurons of WT slices treated with TAT-mGluR5ct; reduced [2]: 0.88
co-localized mGluR5/GluN1/Homer1-positive signals as percentage of synaptic GluN1 signal, WT neurons treated with TAT-mGluR5ct (5 µM, 1 h); increased [3]: 71.8%
co-localized mGluR5/GluN1/Homer1-positive signals as percentage of synaptic GluN1 signal, WT neurons treated with the control peptide TAT-mGluR5mu (5 µM, 1 h); no effect [3]: 61.2%
Substance: Metabotropic glutamate receptor subtype 5 (mGluR5) (from UniProt Q3UVX5 19-1203)
